# B1: GSE56: p53 dominant negative peptide (SEQ ID NO: 3), delivered as in vitro transcribed mRNA (nucleic acid)
# DNA: ATGGATGGATGGTGTCCTGGGAGAGACCGTCGGACAGAGGAAGAAAATTTCCGCAAAAAAGAAGAGCATTGCCCGGAGCTGCCCCCAGGGAGTGCAAAGAGAGCACTGCCCACCAGCACAAGCTCCTCTCCCCAGCAAAAGAAAAAACCACTCGATGGAGAATATTTCACCCTTAAGATCCGTGGGCGTGAGCGCTTCGAGATGTTCCGAGAGCTGAATGAGGCCTTGGAATTAAAGGATGCCCGTGCTGCCGAGGAGTCAGGAGACAGCAGGGCTCACTCCAGCTACCCGAAGATAGTTAGTTAG
# modifications: in vitro transcribed mRNA; protein SEQ ID NO: 3
# B2: Ad5-E4orf6/7: adenovirus serotype 5 protein E4orf6/7 (SEQ ID No. 27), delivered as in vitro transcribed mRNA (nucleic acid)
# DNA: ATGACCACCAGCGGCGTGCCCTTCGGCATGACACTCAGACCTACCAGAAGCCGGCTGAGCAGAAGAACCCCTTACAGCAGAGACAGGCTGCCTCCATTCGAGACAGAGACACGGGCCACCATCCTGGAAGATCACCCTCTGCTGCCCGAGTGTAACACCCTGACCATGCACAACGCCTGGACAAGCCCATCTCCTCCAGTGAAACAGCCCCAAGTGGGACAGCAGCCTGTTGCTCAGCAGCTGGACAGCGACATGAACCTGTCTGAACTGCCCGGCGAGTTCATCAACATCACCGACGAGAGACTGGCCCGGCAAGAGACAGTGTGGAACATCACCCCTAAGAACATGAGCGTGACCCACGACATGATGCTGTTCAAGGCCAGCAGAGGCGAGCGGACAGTGTACAGCGTTTGTTGGGAAGGCGGCGGACGGCTGAATACCAGAGTGCTGTAA
# modifications: in vitro transcribed mRNA
# How the values were obtained:
# [1] = tested on: vector DNA (ITR+cargo, ITR, HIV probes) in human graft; test: ddPCR of viral vector copies per human genome in long-term human xenografts; format: in vivo, NSG mice; settings: AAVS1-edited HSPCs, AAV template
# Source text: Since short-read sequencing of the edited locus and genome-wide IS identification may underestimate the overall frequency of trapping events, we performed ddPCR analyses to get an independent genome-wide quantification of AAV genome trapping events. […] On the contrary, we detected only background noise signal when probing for the AAV plasmid contaminants in the human long-term graft (FIG. 6i). […] Whether integration of AAV DNA occurs mostly as individual elements in a sizable fraction of cells treated for editing or as concatemers in only a small fraction of them cannot be determined by this analysis. Since ITR fragments are not detected by the ITR+cargo assay we performed ddPCR also with the ITR probe on PB samples of mice from FIG. 5g and found equal or higher signal in most mice (FIG. 51).
# gDNA was isolated with QIAamp DNA Micro Kit from DNAse-treated in vitro culture cells pellet and in vivo samples, or with QuickExtract (Epicentre) from single colonies according to the manufacturer's instructions. For ddPCR analyses, 5-50 ng of gDNA for in vitro/vivo samples and 2 μl of gDNA for single colonies were analyzed using the QX200 Droplet Digital PCR System according to the manufacturer's instructions. […]
# AAVS1 locus = format: in vivo, human xenograft; settings: in presence and absence of Ad5-E4orf6/7; 65 samples of published experiments
# Procedure: PCR amplicons for individual samples were generated by nested PCR and starting from >50-100 ng of purified gDNA. The first PCR step was performed with GoTaq G2 DNA Polymerase (Promega) according to manufacturer instruction using the following amplification protocol: 95° C.×5′min, (95° C.×0.5 min, 60° C.×0.5 min, 72° C.×[…])×20 cycles, 72° C.×5 min. The second PCR step was performed with GoTaq G2 DNA Polymerase (Promega) according to manufacturer instruction using 5 μl of the first-step PCR product and the following amplification protocol: 95° C.×5 min, (95° C.×0.5 min, 60° C.×0.5 min, 72° C.×0.3 min)×20 cycles, 72° C.×5 min. […] Amplicons concentration and quality was assessed by QuantiFluor ONE dsDNA system and 4200 Tapestation System (Agilent). […]
# Sequencing data were analyzed with CRISPResso2, which enables detection and quantification of insertions, mutations, and deletions in reads from gene editing experiments. In details, for each sample, input NGS reads were trimmed using the Trimmomatic software (http://www.usadellab.org/cms/?page=trimmomatic) based on the phred33 score to get rid of low-quality positions (score <30) and to remove Illumina adapters, keeping only trimmed sequences longer than 100 bp (CRISPResso2 options:—trim_sequences—trimmomatic_command trimmomatic—trimmomatic_options_string ‘[…]: TruSeq3-PE-2.fa: 2:30:10 MINLEN: 100’). […]
Molecule,ITR+cargo copies in long-term xenograft in presence of editing enhancers [1],frequency and number of unique NHEJ-edited alleles in the human graft (AAVS1 locus)
B1,more copies,higher
B2,more copies,–

# Source: patent US20250288617A1, “Gene Therapy” (priority 2022, published 2025)
